Where no end group is shown, it is not given here.
Biological target: mitogen-activated protein kinase-activated protein kinase 2 (MK2), P49137
Assay: cell-based or functional assay

Sequence of mitogen-activated protein kinase-activated protein kinase 2 (MK2), P49137 (P49137 46-400): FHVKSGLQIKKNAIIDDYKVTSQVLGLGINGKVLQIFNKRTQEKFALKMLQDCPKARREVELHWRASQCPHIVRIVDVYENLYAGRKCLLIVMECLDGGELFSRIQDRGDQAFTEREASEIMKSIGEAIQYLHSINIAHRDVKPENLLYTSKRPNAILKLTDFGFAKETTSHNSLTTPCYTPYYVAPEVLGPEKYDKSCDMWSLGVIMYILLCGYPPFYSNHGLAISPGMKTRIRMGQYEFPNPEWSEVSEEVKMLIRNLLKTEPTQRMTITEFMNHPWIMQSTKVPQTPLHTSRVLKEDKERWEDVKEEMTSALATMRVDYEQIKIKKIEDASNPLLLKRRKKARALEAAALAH

Binder YARAAARQARAKALARQLGVAA (not fully specified (C-terminus)) [MMI-0100 (…; SEQ ID NO: 1)] has a Percent Activity (radiometric kinase assay, peptide at 100 µM) of less than 5 % activity.

From US20130115256A1, “METHODS FOR TREATING OR PREVENTING VASCULAR GRAFT FAILURE” (priority 2010, published 2013)
